What all share (assay): cell_activity
In data set [1] the test system is TALENbar334 monomer 1 (artificial). Conditions: tobacco protoplasts, as pair with monomer 2, 12 nt spacer, foreign DNA pTIB235; 94.35 with pTCV224, 94.09 with pTCV225.
Data set [2] has as its system TALENbar334 monomer 2 (artificial). To be noted: tobacco protoplasts, as pair with monomer 1, 12 nt spacer, foreign DNA pTIB235; 94.35 with pTCV224, 94.09 with pTCV225.
For data set [3], the system named is TALENbar86 monomer 1 (artificial). Conditions: tobacco protoplasts, as pair with monomer 2, 13 nt spacer, foreign DNA pTIB235; 19.6 with pTCV224, 25.6 with pTCV225.
Data set [4] deals with TALENbar86 monomer 2 (artificial). Conditions: tobacco protoplasts, as pair with monomer 1, 13 nt spacer, foreign DNA pTIB235; printed half-site differs from full site as printed (AGCACGGTCAACTTCCCT).
The subject of data set [5] is bar meganuclease (cleaving at bar position 479) (artificial). Conditions: tobacco protoplasts, targeted insertion with repair DNA pTCV225 (3/164 calli).

Regarding “CCACGCTCTACACCCACC (double strand) [bar334 half-site 1]”, the activity in data set [1] came to 76 % mutation.
With “TGAAGCCCTGTGCCTCCA (double strand) [bar334 half-site 2]”, the activity in data set [2] was 76 % mutation.
Take “CTGCACCATCGTCAACCA (double strand) [bar86 half-site 1]”: the activity in data set [3] amounted to 6.25 % mutation.
In data set [4], “ACGGAAGTTGACCGTGCT (double strand) [bar86 half-site 2]” showed an activity of 6.25 % mutation.
For the sequence “GGGAACTGGCATGACGTGGGTTTC (double strand) [bar meganuclease site]”, the activity in data set [5] was determined as 1.8 % TSI.

The record behind these values is patent US20160053274.
